Assay results reported in patent US20090281024A1.

Experiments:
[1] = target: MAT CR12 (matriptase CR pair 1-2) (human) (UniProt Q9Y5Y6); test: relative binding signal under isomolar conditions on MAT CR12 (heading of the figure); solid-phase binding assay
[2] = target: LRP2 CR89 Y1042W V1047D (human) (UniProt P98164); test: solid-phase assay, coated CR protein
[3] = target: LRP2 CR89 Y1042W V1047D R1088D (human) (UniProt P98164); test: solid-phase assay, coated CR protein

Chain of MAT CR12 (matriptase CR pair 1-2) (human) (Q9Y5Y6 452-524 limits assumed): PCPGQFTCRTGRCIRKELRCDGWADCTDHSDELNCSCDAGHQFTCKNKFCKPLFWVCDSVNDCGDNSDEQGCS
Chain of LRP2 CR89 Y1042W V1047D (human) (P98164 1022-1105 Y1043W/V1048D limits assumed): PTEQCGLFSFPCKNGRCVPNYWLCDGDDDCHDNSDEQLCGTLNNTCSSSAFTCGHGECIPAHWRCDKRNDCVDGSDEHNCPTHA
Chain of RAP d3 (wild-type third domain of the receptor-associated protein) (P30533 235-353): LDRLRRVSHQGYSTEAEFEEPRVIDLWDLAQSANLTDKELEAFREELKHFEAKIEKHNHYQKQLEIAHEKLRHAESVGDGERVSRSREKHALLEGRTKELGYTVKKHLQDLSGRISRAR

| fnctn (relative binding signal under isomolar conditions) [1] | % max bind [2] | % max bind [3] | Substance |
| --- | --- | --- | --- |
| 0.65 | – | – | MatRAP1 N-42 (from UniProt P30533 277-353) (designed binder) |
| – | 11% | 15% | RAP d3 (wild-type third domain of the receptor-associated protein) (from UniProt P30533 235-353) (ligand) |
